Reference: the Human Domainome abundance scans (Beltran et al. 2025)
± gives the uncertainty stated by the source.

B1: Zinc finger homeobox protein 3, residues 2643 to 2698; numbered along this chain, Q15911 (parent)
chain: RLRTTITPEQLEILYQKYLLDSNPTRKMLDHIAHEVGLKKRVVQVWFQNTRARERK

Variants of: B1
Experiment: abundance fitness (aPCA) (normalised: wild type 0, dead -1); higher = more abundant; growth selection in yeast, the domain comes from the species named
Details: Homo sapiens

Variant | abundance fitness
RLRTTITPEQLEILYQKYLLDSNPTRKMLDRIAHEVGLKKRVVQVWFQNTRARERK [H31R] | -0.237 ± 0.088
RLRTTITPEQLEILYQKYLLDSNPTRKMRDHIAHEVGLKKRVVQVWFQNTRARERK [L29R] | -0.544 ± 0.079
RLRTTITPEQLEILYQKYLLDSNPTRKMDDHIAHEVGLKKRVVQVWFQNTRARERK [L29D] | -0.805 ± 0.15
RLRTTITPEQLEILYQKYLLDSNPTRKMMDHIAHEVGLKKRVVQVWFQNTRARERK [L29M] | 0.028 ± 0.12
RLRTNITPEQLEILYQKYLLDSNPTRKMLDHIAHEVGLKKRVVQVWFQNTRARERK [T5N] | -0.233 ± 0.19
RLRTHITPEQLEILYQKYLLDSNPTRKMLDHIAHEVGLKKRVVQVWFQNTRARERK [T5H] | -0.784 ± 0.31
RLRTTITPEQLEILYQKYLLDSNPTRKMLDHIKHEVGLKKRVVQVWFQNTRARERK [A33K] | -0.804 ± 0.14
RLRTTITPEQLEILYQKCLLDSNPTRKMLDHIAHEVGLKKRVVQVWFQNTRARERK [Y18C] | -0.696 ± 0.13
RLRTTITPEQLEILYQKQLLDSNPTRKMLDHIAHEVGLKKRVVQVWFQNTRARERK [Y18Q] | -0.698 ± 0.2
RLRTTITPEQLEILYQKVLLDSNPTRKMLDHIAHEVGLKKRVVQVWFQNTRARERK [Y18V] | -0.644 ± 0.1
RLRTTITPEQLEILYQKYLLDSNPMRKMLDHIAHEVGLKKRVVQVWFQNTRARERK [T25M] | -0.256 ± 0.12
RLRTTITPEQLEILYQKYLLDSNPTRKMLDHIAHEVGFKKRVVQVWFQNTRARERK [L38F] | -0.819 ± 0.22
RLRTTITPEQLEILYQKYLLDSNPTRKMLDHIAHEVGYKKRVVQVWFQNTRARERK [L38Y] | -1 ± 0.41
RLRTTITPEQLEILYQKYLLDSNPTRKMLDHIAHEVGLTKRVVQVWFQNTRARERK [K39T] | 0.373 ± 0.11
RLRTTITPEQLEILYQKYLLDSNPTRKMLDHIAHEVGLAKRVVQVWFQNTRARERK [K39A] | 0.236 ± 0.087
RLRTTITEEQLEILYQKYLLDSNPTRKMLDHIAHEVGLKKRVVQVWFQNTRARERK [P8E] | -0.259 ± 0.14
RLRTTITPEQLEILYQKYLLDSNPTRKMLDHIAHEVGLKKRVVQVWFQNERARERK [T50E] | 0.342 ± 0.11
RLRTTITPEQLEILYQKYLLDSNPTRKMLDHIAHEVGLKKRVVQVWFQNWRARERK [T50W] | -0.156 ± 0.091
RLRTTITPEQLEILYQKYLLDSNPTRKMLDHIAHEVGLKKRVVQVWFQNIRARERK [T50I] | -0.247 ± 0.11
RLRTTITPEQLEILYQKYLLDSNPTRKMLDHIAIEVGLKKRVVQVWFQNTRARERK [H34I] | -0.632 ± 0.2
RLRTTITPEQLEILYQKYLLDSNPTRKMLDHIANEVGLKKRVVQVWFQNTRARERK [H34N] | -0.044 ± 0.18
RLRTTITPEQLEILYQKYLLDSNPTRKMLDHIAQEVGLKKRVVQVWFQNTRARERK [H34Q] | -0.017 ± 0.1
RLRTTITPEQLEILYQKYLLDSNPTRKMLDHIAHEAGLKKRVVQVWFQNTRARERK [V36A] | -0.114 ± 0.09
RLRTTITPEQLEILYQKYLLDSNPTRKMLDHIAHESGLKKRVVQVWFQNTRARERK [V36S] | -0.134 ± 0.094

Variant | abundance fitness
RLRTTITPEQLEILYQKYLLDSNPTRKMLDHIAHELGLKKRVVQVWFQNTRARERK [V36L] | -0.145 ± 0.094
RLRTTITPEQLEILYQKYLLDCNPTRKMLDHIAHEVGLKKRVVQVWFQNTRARERK [S22C] | -0.136 ± 0.11
RLRTTIYPEQLEILYQKYLLDSNPTRKMLDHIAHEVGLKKRVVQVWFQNTRARERK [T7Y] | -0.487 ± 0.26
RLRTTIGPEQLEILYQKYLLDSNPTRKMLDHIAHEVGLKKRVVQVWFQNTRARERK [T7G] | -0.072 ± 0.077
RLRTTIRPEQLEILYQKYLLDSNPTRKMLDHIAHEVGLKKRVVQVWFQNTRARERK [T7R] | -0.443 ± 0.082
RLRTTIWPEQLEILYQKYLLDSNPTRKMLDHIAHEVGLKKRVVQVWFQNTRARERK [T7W] | -0.719 ± 0.12
RLRTTIVPEQLEILYQKYLLDSNPTRKMLDHIAHEVGLKKRVVQVWFQNTRARERK [T7V] | -0.688 ± 0.1
RLRTTITPEQLEILYQKYLLDSNPTRKMLDHEAHEVGLKKRVVQVWFQNTRARERK [I32E] | -0.9 ± 0.13
RLRTTITPEQLEILYQKYLLDSNPTRKMLDHIAHEVGLKKRVVQVWFQRTRARERK [N49R] | -0.267 ± 0.082
RLRTTITPEQLEILYQKYLLDSNPTRKMLDHIAHEVGLKKRVVQVWFQETRARERK [N49E] | 0.406 ± 0.11
LLRTTITPEQLEILYQKYLLDSNPTRKMLDHIAHEVGLKKRVVQVWFQNTRARERK [R1L] | 0.561 ± 0.31
TLRTTITPEQLEILYQKYLLDSNPTRKMLDHIAHEVGLKKRVVQVWFQNTRARERK [R1T] | 0.504 ± 0.29
RLRTTITPEQLEILYQLYLLDSNPTRKMLDHIAHEVGLKKRVVQVWFQNTRARERK [K17L] | -0.303 ± 0.099
RLRTTITPEQLEILYQRYLLDSNPTRKMLDHIAHEVGLKKRVVQVWFQNTRARERK [K17R] | 0.099 ± 0.078
RLRTTITPEQLEILYSKYLLDSNPTRKMLDHIAHEVGLKKRVVQVWFQNTRARERK [Q16S] | -0.213 ± 0.1
RLRTTITPEQLEILYDKYLLDSNPTRKMLDHIAHEVGLKKRVVQVWFQNTRARERK [Q16D] | -0.246 ± 0.13
RLRTTITPEQLEILYHKYLLDSNPTRKMLDHIAHEVGLKKRVVQVWFQNTRARERK [Q16H] | -0.267 ± 0.19
RLRTTITPEQLEILYQKYLLDSNPTRKMLDHIAHEVGLKKRVVQRWFQNTRARERK [V45R] | -0.561 ± 0.084
RLRTTITPEQLEILYQKYLYDSNPTRKMLDHIAHEVGLKKRVVQVWFQNTRARERK [L20Y] | -0.466 ± 0.19
RLRTTITPEQLEILYQKYLIDSNPTRKMLDHIAHEVGLKKRVVQVWFQNTRARERK [L20I] | -0.056 ± 0.17
RLRTTITPEQLEILYQKYNLDSNPTRKMLDHIAHEVGLKKRVVQVWFQNTRARERK [L19N] | -0.422 ± 0.16
RLRTTITPEQLEILYQKYPLDSNPTRKMLDHIAHEVGLKKRVVQVWFQNTRARERK [L19P] | -0.535 ± 0.18
RLRTTITPEQLEILYQKYSLDSNPTRKMLDHIAHEVGLKKRVVQVWFQNTRARERK [L19S] | -0.154 ± 0.092
